Measured values from US20230093708A1, “PROTEIN NANOPARTICLE DESIGN AND APPLICATION” (Duke University, priority 2020, published 2023).
Non-standard residues stand in square brackets, D forms with d. Phe(4-N3) = [N-]=[N+]=Nc1ccc(C[C@H](N)C(=O)O)cc1

Key:
Format in all cases: physicochemical
[1] = Static and dynamic light scattering (SLS/DLS) of block co-polypeptides
Procedure, shortened: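 Samples at 10 μM in PBS (140 mM NaCl, 10 mM phosphate, 3 mM KCl, pH 7.4), filtered 0.45 μm, measured at 15 °C over 30°–150° in 5° steps. Rh from cumulant fit of DLS, extrapolated to zero angle. Rg and MW from partial Zimm plots of SLS.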

[2] = Temperature-programmed dynamic light scattering; conditions: between 4 °C and 37 °C; micelles 20-37 °C; 10 μM in 140 mM PBS
Protocol: Temperature-programmed dynamic light scattering experiments were carried out using a Dynapro plate reader (Wyatt Technology; Santa Barbara, Calif.) with samples filtered through 0.45 μm Millex-GV filters. Data were collected at increments of 1° C., and the cumulant fit hydrodynamic radius was taken as the radius. The Tt was defined as the temperature at which aggregates of size hundreds of nanometers were formed.
Each block co-polypeptide was analyzed by dynamic light scattering (DLS) at several temperatures between 4° C. and 37° C. to determine the thermal stability of the micelles, and to determine their radius of hydration (Rh). […] In contrast, RLP40-ELP80 (SEQ ID NO: 84) and RLP40-ELP80-Fn3 (SEQ ID NO: 96) self-assembled into micelles with a Rh of 30 and 32 nm, respectively, between 20-37° C. (FIG. 15).
Therefore, to get a more accurate picture, we monitored the Rh as we slowly cooled the solution. We observed two different overall behaviors. [S]-40-[QHN]-40 (SEQ ID NO: 100) upon cooling underwent a clear unimer to micelle transition at ˜55° C. and a clear micelle to aggregate transition at 28° C. (FIG. 32B). A unimer to micelle transition that is temperature dependent is known as the critical micellization temperature (CMT). As we know from before, this UCST aggregation temperature is dependent on the solution concentration. [S]-80-[QHN]-40 (SEQ ID NO: 101) remained a micelle at the highest temperature we could measure with the instrument. Upon cooling the size of the aggregate increased slightly until a clear aggregate transition at 18° C.

[3] = Cryo-TEM micelle core size, inter-core spacing and aspect ratio; conditions: Table 6, mean ± standard deviation
Protocol: Using the data from FIG. 18, particularly the longest straight line of an individual particle and a corresponding perpendicular measurement were made to describe the aspect ratio of particles observed.
Cryo-TEM experiments were performed at Duke University's Shared Materials Instrumentation Facility (Durham, N.C.). Lacey holey carbon grids (Ted Pella, Redding, Calif.) were glow discharged in a PELCO EasiGlow Cleaning System (Ted Pella, Redding, Calif.). A 3 μL drop (10 μM RLPn-ELP80) was deposited onto the grid, blotted for 3 s with an offset of −3 mm, and vitrified in liquid ethane using the Vitrobot Mark III (FEI, Eindhoven, Netherlands). Prior to vitrification, the sample chamber was maintained at 15° C. and 100% relative humidity to prevent sample evaporation. Grids were transferred to a Gatan 626 cryoholder (Gatan, Pleasanton, Calif.) and imaged with a FEI Tecnai G2 Twin TEM (FEI, Eindhoven, Netherlands), operating at 80 keV. Feature sizes and spacing distances were measured in ImageJ by manual measurement of at least 25 particles.

[4] = DLS of native and crosslinked pAzF diblock constructs in PBS and GuHCl; conditions: for hydrodynamic radius (DLS): Table 12, crosslinked UAA5-40-K8D4 ligand constructs
Excerpt: We wanted to thoroughly investigate the effects of pAzF-introduction as well as nanoparticle crosslinking on nanoparticle self-assembly. For this, we started by characterizing solely our five different ELP/RLP diblock architectures without any C-terminal functionalization. After expression and purification of the diblock constructs using ITC, the pAzF-containing constructs were crosslinked in solution by exposure to UV irradiation and characterized using dynamic light scattering (DLS). […] Generally, both processes seem to have increased the measured radii with this effect being more pronounced for the worm-forming constructs.
Apart from changes in nanoparticle morphology we were particularly interested in the effect pAzF-crosslinking had on their stability. […] GuHCl is a well-known denaturing agent that disrupts any inter- and intramolecular electrostatic forces and completely breaks down the quaternary, tertiary and secondary structure of most known proteins. Covalent bonds—such as the ones formed by pAzF-crosslinking—however remain unaffected by GuHCl, thus, the addition of this denaturing agent was expected to give us insights on the stability of our crosslinked nanoparticles. […] All native samples on the other hand resorted to complete unimerization upon exposure to GuHCl. As the Rh values for the crosslinked particles in GuHCl were generally larger than in PBS, the DLS data furthermore indicates a swelling behavior in the presence of the denaturing agent. This can most probably be attributed to the RLP core which is assumed to be completely collapsed in PBS but will however try to reach an elongated, random-coil morphology in the presence of GuHCl.
The first step of the characterization process was to produce crosslinked particles for the functionalized diblock constructs and to analyze whether the attachment of the ligands had caused any significant changes in particle size. […] Whatever the reason was, it had no effect on the crosslinking process as the particles still remained stable after GuHCl exposure.
Dynamic light scattering of cross-linkable protein nanoparticles was performed. […] However, these crosslinked particles remain assembled, actually growing slightly in size due to chain swelling of the core and corona in this new buffer. These novel scaffolds support various targeting domains and assemble into nearly identically sized nanoparticles between […] in hydrodynamic radius.

[5] = 15 μm in 7.2M GuHCl, crosslinked
[6] = 15 μm in 7.2M GuHCl, native (not crosslinked)
[7] = 15 μm in PBS, native (not crosslinked)

B1: RLP20-ELP80: RLP-ELP block co-polypeptide, (QYPSDGRG)20-(VPG[A:G]G)80 (protein)
chain: QYPSDGRGQYPSDGRGQYPSDGRGQYPSDGRGQYPSDGRGQYPSDGRGQYPSDGRGQYPSDGRGQYPSDGRGQYPSDGRGQYPSDGRGQYPSDGRGQYPSDGRGQYPSDGRGQYPSDGRGQYPSDGRGQYPSDGRGQYPSDGRGQYPSDGRGQYPSDGRGGAGVPGGGVPGAGVPGGGVPGAGVPGGGVPGAGVPGGGVPGAGVPGGGVPGAGVPGGGVPGAGVPGGGVPGAGVPGGGVPGAGVPGGGVPGAGVPGGGVPGAGVPGGGVPGAGVPGGGVPGAGVPGGGVPGAGVPGGGVPGAGVPGGGVPGAGVPGGGVPGAGVPGGGVPGAGVPGGGVPGAGVPGGGVPGAGVPGGGVPGAGVPGGGVPGAGVPGGGVPGAGVPGGGVPGAGVPGGGVPGAGVPGGGVPGAGVPGGGVPGAGVPGGGVPGAGVPGGGVPGAGVPGGGVPGAGVPGGGVPGAGVPGGGVPGAGVPGGGVPGAGVPGGGVPGAGVPGGGVPGAGVPGGGVPGAGVPGGGVPGAGVPGGGVPGAGVPGGGVPGAGVPGGGVPGAGVPGGGVP
- hydrodynamic radius (Rh) [1]: 5.5 nm
- Rh (nm) ([1]; Table 1, 10 μM in PBS, 15 °C): 5.5 nm
- Rh (DLS at several temperatures) [2]: ~7 nm

B2: RLP40-ELPS80: RLP-ELP block co-polypeptide with Ser guest residue in the corona (protein)
chain: QYPSDGRGQYPSDGRGQYPSDGRGQYPSDGRGQYPSDGRGQYPSDGRGQYPSDGRGQYPSDGRGQYPSDGRGQYPSDGRGQYPSDGRGQYPSDGRGQYPSDGRGQYPSDGRGQYPSDGRGQYPSDGRGQYPSDGRGQYPSDGRGQYPSDGRGQYPSDGRGQYPSDGRGQYPSDGRGQYPSDGRGQYPSDGRGQYPSDGRGQYPSDGRGQYPSDGRGQYPSDGRGQYPSDGRGQYPSDGRGQYPSDGRGQYPSDGRGQYPSDGRGQYPSDGRGQYPSDGRGQYPSDGRGQYPSDGRGQYPSDGRGQYPSDGRGQYPSDGRGGSGVPGSGVPGSGVPGSGVPGSGVPGSGVPGSGVPGSGVPGSGVPGSGVPGSGVPGSGVPGSGVPGSGVPGSGVPGSGVPGSGVPGSGVPGSGVPGSGVPGSGVPGSGVPGSGVPGSGVPGSGVPGSGVPGSGVPGSGVPGSGVPGSGVPGSGVPGSGVPGSGVPGSGVPGSGVPGSGVPGSGVPGSGVPGSGVPGSGVPGSGVPGSGVPGSGVPGSGVPGSGVPGSGVPGSGVPGSGVPGSGVPGSGVPGSGVPGSGVPGSGVPGSGVPGSGVPGSGVPGSGVPGSGVPGSGVPGSGVPGSGVPGSGVPGSGVPGSGVPGSGVPGSGVPGSGVPGSGVPGSGVPGSGVPGSGVPGSGVPGSGVPGSGVPGSGVPGSGVPGSGVPGSGVPGSGVPGSGVP
- Nagg ([1]; Table 5, 10 μM in PBS, 15 °C): 80
- Rg(nm) ([1]; Table 5, 10 μM in PBS, 15 °C): 27.2 nm
- Rh (nm) ([1]; Table 5, 10 μM in PBS, 15 °C): 33.0 nm
- ρ ([1]; Table 5, shape factor Rg/Rh): 0.82
- Spacing (nm) ([3]; inter-core spacing): 20.0 ± 2.6 nm
- Core radius (nm) [3]: 13.1 ± 2.7 nm

B3: UAA2-40: pAzF-containing sphere-forming diblock construct, two pAzF residues per polypeptide chain (protein)
chain: QYPSDGRGQYPSDGRGQYPSDGRGQYPSDGRGQYPSDGRGQYPSDGRGQYPSDGRGQYPSDGRGQYPSDGRGQYPSDGRGQYPSDGRGQYPSDGRGQYPSDGRGQYPSDGRGQYPSDGRGQYPSDGRGQYPSDGRGQYPSDGRGQYPSDGRGQYPSDGRG[Phe(4-N3)]QYPSDGRGQYPSDGRGQYPSDGRGQYPSDGRGQYPSDGRGQYPSDGRGQYPSDGRGQYPSDGRGQYPSDGRGQYPSDGRGQYPSDGRGQYPSDGRGQYPSDGRGQYPSDGRGQYPSDGRGQYPSDGRGQYPSDGRGQYPSDGRGQYPSDGRGQYPSDGRG[Phe(4-N3)]
- RH (nm) [4, 5]: 54.1 ± 2.0 nm
- RH (nm) [4, 6]: 7.0 ± 1.1 nm
- RH (nm) ([4]; 15 μm in PBS, crosslinked): 29.8 ± 0.3 nm
- RH (nm) [4, 7]: 28.1 ± 0.2 nm

B4: UAA5-40: pAzF-containing sphere-forming diblock construct (protein)
chain: QYPSDGRGQYPSDGRGQYPSDGRGQYPSDGRGQYPSDGRGQYPSDGRGQYPSDGRGQYPSDGRGQYPSDGRGQYPSDGRGQYPSDGRGQYPSDGRGQYPSDGRGQYPSDGRGQYPSDGRGQYPSDGRGQYPSDGRGQYPSDGRGQYPSDGRGQYPSDGRG[Phe(4-N3)]QYPSDGRGQYPSDGRGQYPSDGRGQYPSDGRGQYPSDGRGQYPSDGRGQYPSDGRGQYPSDGRGQYPSDGRGQYPSDGRGQYPSDGRGQYPSDGRGQYPSDGRGQYPSDGRGQYPSDGRGQYPSDGRGQYPSDGRGQYPSDGRGQYPSDGRGQYPSDGRG[Phe(4-N3)]QYPSDGRGQYPSDGRGQYPSDGRGQYPSDGRGQYPSDGRGQYPSDGRGQYPSDGRGQYPSDGRGQYPSDGRGQYPSDGRGQYPSDGRGQYPSDGRGQYPSDGRGQYPSDGRGQYPSDGRGQYPSDGRGQYPSDGRGQYPSDGRGQYPSDGRGQYPSDGRG[Phe(4-N3)]QYPSDGRGQYPSDGRGQYPSDGRGQYPSDGRGQYPSDGRGQYPSDGRGQYPSDGRGQYPSDGRGQYPSDGRGQYPSDGRGQYPSDGRGQYPSDGRGQYPSDGRGQYPSDGRGQYPSDGRGQYPSDGRGQYPSDGRGQYPSDGRGQYPSDGRGQYPSDGRG[Phe(4-N3)]
- RH (nm) [4, 5]: 52.1 ± 1.0 nm
- RH (nm) [4, 6]: 5.9 ± 1.6 nm
- RH (nm) ([4]; 15 μm in PBS, crosslinked): 34.3 ± 0.3 nm
- RH (nm) [4, 7]: 29.8 ± 0.2 nm
- RH (nm) ([4]; Table 11, crosslinked UAA5-40-K8D4-ligand constructs, 0.7 μM in 7.2M GuHCl): 52.1 ± 1.0 nm
- RH (nm) ([4]; Table 11, crosslinked UAA5-40-K8D4-ligand constructs, 7 μM in PBS): 34.3 ± 0.3 nm
- hydrodynamic radius (DLS) ([4]; 0.7 μM in 7.2M GuHCl): 52.1 ± 1.0
- hydrodynamic radius (DLS) ([4]; 7 μM in PBS): 34.3 ± 0.3
